Measurements as given in PMC12109719, “Synergistic Signal Amplification via Weak Value Amplification Effect and Sandwich Structure for Highly Sensitive and Specific Real-Time Detection of CA125”.

How the values were obtained:
human IgE (human) = assay: imaging weak measurement, aptamer-antibody sandwich; settings: 25 ng/mL; CA125 antibody (CA125 gave 665.83 a.u.); 5'-NH2; PBS+ (10 mM PBS, 5 mM MgCl2) as reference channel; aptamer 2 uM immobilized on polydopamine-coated prism, 2% blocking solution; readout at 55 min; pH and …
human IgG (human) = assay: as above; settings: 25 ng/mL; CA125 antibody (CA125 gave 665.83 a.u.); 5'-NH2; PBS+ (10 mM PBS, 5 mM MgCl2) as reference channel; aptamer 2 uM immobilized on polydopamine-coated prism, 2% blocking solution; readout at 55 min; pH and …
[1] = molecular target: CA125 (carbohydrate antigen 125) (UniProt Q8WXI7 1-14451); assay: imaging weak measurement, aptamer-antibody sandwich; CA125 50 U/mL; CA125 antibody; PBS+ (10 mM PBS, 5 mM MgCl2) as reference channel; aptamer 2 uM immobilized on polydopamine-coated prism, 2% blocking solution; readout at 55 min; pH and temperature not stated; settings: protein: commercial

Molecule	binding signal (human IgE (human))	binding signal (human IgG (human))	binding signal [1]
CTCACTACTATAGGGATAGGGAGACAAGAATAAACGCTCAA [CA125-1 aptamer]	< 35 a.u.	< 35 a.u.	
CTCACTACTATAGGGATAGGGAGACAAGAATAAACGCTCAA (ssDNA, 5'-NH2) [CA125-1 aptamer]			735 a.u.
TATCAATTACTTACCCTAGTGGTGTGATGTCGTATGGATG (ssDNA, 5'-NH2-C6) [CA125-3 aptamer]			647 a.u.
TTATCGTACGACAGTCATCCTACAC (ssDNA, 5'-NH2-C6) [CA125-2 aptamer]			695 a.u.
